In FireProtDB:
Values joined by “and” are separate entries in the source; they are usually repeats but may differ in a detail not shown here. Equal entries are not always repeated.

Conditions: whole UniProt chain shown
[1] = Hirudo medicinalis, pH 5.4, 25 °C, GdnHCl, CD, KH2PO4-NaOH 10 mM, reversible: yes
[2] = Gallus gallus, pH 7, 25 °C, GdnHCl, Fluorescence, Phosphate 10 mM, NaCl 50 mM
[3] = Homo sapiens, pH 7, 37 °C, GdnHCl, CD, Sodium phosphate 100 mM, reversible: Yes
[4] = Homo sapiens, pH 7, Thermal, DSC, Tris-Maleate 0.02M, KCl 0.1 M, transition: 2, reversible: no
[5] = Homo sapiens, pH 7, Thermal, DSC, Tris-Maleate / KCL 20000 / 100000, transition: 2, reversible: no
[6] = Homo sapiens, pH 6.5, 25 °C, Urea, CD, Sodium phosphate 20 mM, NaCl 100 mM
[7] = Homo sapiens, pH 7, 25 °C, Urea, CD, Tris-HCL, Nacl, transition: 2, reversible: yes
[8] = Homo sapiens, pH 7, 25 °C, Urea, Fluorescence, Tris-HCl, NaCl, transition: 2
[9] = Homo sapiens, pH 7, 25 °C, Urea, fluorescence, Tris-HCL, Nacl, transition: 2, reversible: yes
[10] = Escherichia phage lambda, pH 5.6, 37 °C, Urea, CD, Acetic acid(deuterated) 10 mM, NaCl 100 mM, reversible: yes
[11] = Escherichia phage lambda, pH 6.6, 20 °C, GdnHCl, CD, Potassium phosphate 50 mM, KCl 100 mM, reversible: yes
[12] = Escherichia phage lambda, pH 7, 5 °C, GdnHCl, CD, Potassium phosphate 50 mM, KCl 100 mM, reversible: yes (70-100%)
[13] = Escherichia phage lambda, pH 7, 25 °C, GdnHCl, CD, Potassium phosphate 50 mM, KCl 100 mM, reversible: yes (70-100%)
[14] = Escherichia phage lambda, pH 7, Thermal, DSC, Bis-Tris 10 mM, KCl 200 mM, reversible: yes (88%)
[15] = Escherichia phage lambda, pH 7, Thermal, DSC, Bis-Tris 10 mM, KCl 200 mM, reversible: yes
[16] = Escherichia phage lambda, pH 8, Thermal, CD, KD2PO4 20 mM, NaCl 100 mM, reversible: yes (>90%)
[17] = Escherichia phage lambda, pH 8, Thermal, DSC, Potassium phosphate 10 mM, KCl 200 mM, reversible: no
[18] = Escherichia phage lambda, pH 8, Thermal, DSC, Potassium phosphate 10 mM, KCl 200 mM, reversible: yes (95%)
[19] = Homo sapiens, pH 5.3, Thermal, DSC, acetate 20 mM
[20] = Homo sapiens, pH 2.2, 25 °C, GdnHCl, CD, Sodium cacodylate 50 mM, NaCl 50 mM
[21] = Homo sapiens, pH 8, 25 °C, GdnHCl, CD, Tris-HCl 20 mM
[22] = Homo sapiens, pH 7, Thermal, DSC, Potassium phosphate buffer, NaCl, reversible: yes
[23] = Homo sapiens, pH 4, 25 °C, GdnHCl, CD, Tris sodium acetate MES 50 mM 20 mM 20 mM
[24] = Homo sapiens, pH 7, 25 °C, GdnHCl, CD, Tris sodium acetate MES 50 mM 20 mM 20 mM

B1: Eglin C wild type, P01051 (protein)
chain: TEFGSELKSFPEVVGKTVDQAREYFTLHYPQYDVYFLPEGSPVTLDLRYNRVRVFYNPGTNVVNHVPHVG
denaturant m value [1]: 3.87 kcal/mol/M
unfolding free energy [1]: 6.5 kcal/mol

B2: Riboflavin-binding protein wild type, P02752 (protein)
chain: MLRFAITLFAVITSSTCQQYGCLEGDTHKANPSPEPNMHECTLYSESSCCYANFTEQLAHSPIIKVSNSYWNRCGQLSKSCEDFTKKIECFYRCSPHAARWIDPRYTAAIQSVPLCQSFCDDWYEACKDDSICAHNWLTDWERDESGENHCKSKCVPYSEMYANGTDMCQSMWGESFKVSESSCLCLQMNKKDMVAIKHLLSESSEESSSMSSSEEHACQKKLLKFEALQQEEGEERR
denaturant m value [2]: 4.14 kcal/mol/M
unfolding free energy [2]: 2.78 kcal/mol

B3: Gamma-crystallin S wild type, P22914 (protein)
chain: MSKTGTKITFYEDKNFQGRRYDCDCDCADFHTYLSRCNSIKVEGGTWAVYERPNFAGYMYILPQGEYPEYQRWMGLNDRLSSCRAVHLPSGGQYKIQIFEKGDFSGQMYETTEDCPSIMEQFHMREIHSCKVLEGVWIFYELPNYRGRQYLLDKKEYRKPIDWGAASPAVQSFRRIVE
denaturant m value [3]: 4.6 kcal/mol/M and 2.9 kcal/mol/M
denaturant midpoint (higher = more stable) [3]: 2.3 M and 1.7 M
unfolding free energy [3]: 10.5 kcal/mol and 4.9 kcal/mol
Tm (Homo sapiens, pH 7.4, Thermal, Fluorescence, Disodium phosphate, NaCl): 67.5 °C and 65.8 °C

B4: Matrilysin wild type, P09237 (protein)
chain: MRLTVLCAVCLLPGSLALPLPQEAGGMSELQWEQAQDYLKRFYLYDSETKNANSLEAKLKEMQKFFGLPITGMLNSRVIEIMQKPRCGVPDVAEYSLFPNSPKWTSKVVTYRIVSYTRDLPHITVDRLVSKALNMWGKEIPLHFRKVVWGTADIMIGFARGAHGDSYPFDGPGNTLAHAFAPGTGLGGDAHFDEDERWTDGSSLGINFLYAATHELGHSLGMGHSSDPNAVMYPTYGNGDPQNFKLSQDDIKGIQKLYGKRSNSRKK
Tm [4]: 98.3 °C
unfolding enthalpy (calorimetric) [4]: 13.7 kcal/mol
Tm [5]: 98.3 °C
unfolding enthalpy (calorimetric) [5]: 13.8 kcal/mol

B5: Glutathione S-transferase A1 wild type, P08263 (protein)
chain: MAEKPKLHYFNARGRMESTRWLLAAAGVEFEEKFIKSAEDLDKLRNDGYLMFQQVPMVEIDGMKLVQTRAILNYIASKYNLYGKDIKERALIDMYIEGIADLGEMILLLPVCPPEEKDAKLALIKEKIKNRYFPAFEKVLKSHGQDYLVGNKLSRADIHLVELLYYVEELDSSLISSFPLLKALKTRISNLPTVKKFLQPGSPRKPPMDEKSLEEARKIFRF
denaturant m value [6]: 4.2 kcal/mol/M
denaturant midpoint (higher = more stable) [6]: 4.6 M

B6: Frataxin, mitochondrial wild type, Q16595 (protein)
chain: MWTLGRRAVAGLLASPSPAQAQTLTRVPRPAELAPLCGRRGLRTDIDATCTPRRASSNQRGLNQIWNVKKQSVYLMNLRKSGTLGHPGSLDETTYERLAEETLDSLAEFFEDLADKPYTFEDYDVSFGSGVLTVKLGGDLGTYVINKQTPNKQIWLSSPSSGPKRYDWTGKNWVYSHDGVSLHELLAAELTKALKTKLDLSSLAYSGKDA
denaturant midpoint (higher = more stable) [7]: 4.92 M
unfolding free energy [7]: 9 kcal/mol
denaturant midpoint (higher = more stable) (Homo sapiens, pH 7, 25 °C, Urea, CD, Tris-HCl, NaCl, transition: 2): 4.92 M
denaturant midpoint (higher = more stable) [8]: 4.94 M
unfolding free energy [8]: 9.1 kcal/mol
denaturant midpoint (higher = more stable) [9]: 4.94 M
unfolding free energy [9]: 9.1 kcal/mol
Tm (Homo sapiens, pH 7, Thermal, CD, Sodium phosphate buffer, NaCl): 69.4 °C
Tm (Homo sapiens, pH 7, Thermal, CD, sodium phosphate, Nacl, transition: 2): 69.4 °C

B7: Gamma-crystallin D wild type, P07320 (protein)
chain: MGKITLYEDRGFQGRHYECSSDHPNLQPYLSRCNSARVDSGCWMLYEQPNYSGLQYFLRRGDYADHQQWMGLSDSVRSCRLIPHSGSHRIRLYEREDYRGQMIEFTEDCSCLQDRFRFNEIHSLNVLEGSWVLYELSNYRGRQYLLMPGDYRRYQDWGATNARVGSLRRVIDFS
denaturant midpoint (higher = more stable) (Homo sapiens, pH 7, 25 °C, GdnHCl, Fluorescence, NaPO4 10 mM, reversible: yes): 3.7 M
denaturant midpoint (higher = more stable) (Homo sapiens, pH 7, 37 °C, GdnHCl, Fluorescence, NaPO4 10 mM, reversible: yes): 2.7 M
Tm (Homo sapiens, pH 7, Thermal, ANS fluorescence, PBS, transition: 2, reversible: yes): 76.6 °C
Tm (Homo sapiens, pH 7, Thermal, CD, PBS, transition: 2, reversible: yes): 80 °C

B8: Repressor protein cI wild type, P03034 (protein)
chain: MSTKKKPLTQEQLEDARRLKAIYEKKKNELGLSQESVADKMGMGQSGVGALFNGINALNAYNAALLAKILKVSVEEFSPSIAREIYEMYEAVSMQPSLRSEYEYPVFSHVQAGMFSPELRTFTKGDAERWVSTTKKASDSAFWLEVEGNSMTAPTGSKPSFPDGMLILVDPEQAVEPGDFCIARLGGDEFTFKKLIRDSGQVFLQPLNPQYPMIPCNESCSVVGKVIASQWPEETFG
denaturant m value [10]: 1.23 kcal/mol/M
unfolding free energy [10]: 3.27 kcal/mol
denaturant m value [11]: 2.3 kcal/mol/M
unfolding free energy [11]: 5.2 kcal/mol
denaturant m value [12]: 2.5 kcal/mol/M
denaturant midpoint (higher = more stable) [12]: 2.52 M
unfolding free energy [12]: 6 kcal/mol
denaturant m value [13]: 2.4 kcal/mol/M
denaturant midpoint (higher = more stable) [13]: 2.03 M
unfolding free energy [13]: 4.8 kcal/mol
unfolding free energy (Escherichia phage lambda, pH 7, 25 °C, Urea, CD, Sodium phosphate 20 mM, NaCl 100 mM, reversible: Yes): 2.4 kcal/mol
Tm (Escherichia phage lambda, pH 7, Thermal, CD, Potassium phosphate 10 mM, KCl 100 mM): 54 °C
Tm (Escherichia phage lambda, pH 7, Thermal, CD, Potassium phosphate 50 mM, KCl 100 mM, reversible: yes (60-75%)): 55 °C
Tm (Escherichia phage lambda, pH 7, Thermal, CD, Potassium phosphate 50 mM, KCl 100 mM, reversible: yes (70-100%)): 55.7 °C
Tm (Escherichia phage lambda, pH 7, Thermal, CD, Potassium phosphate 50 mM, KCl 100 mM): 57 °C
Tm [14]: 73.3 °C
unfolding enthalpy (calorimetric) [14]: 82.4 kcal/mol
unfolding enthalpy (van 't Hoff) [14]: 348 kcal/mol
Tm [15]: 50.7 °C
unfolding enthalpy (calorimetric) [15]: 50.9 kcal/mol
unfolding enthalpy (van 't Hoff) [15]: 332 kcal/mol
unfolding free energy (Escherichia phage lambda, pH 7.5, 22 °C, Urea, CD, Potassium phosphate 10 mM, KCl 50 mM): 0 kcal/mol
Tm (Escherichia phage lambda, pH 7.5, Thermal, CD, Potassium phosphate 10 mM, KCl 50 mM): 49 °C
unfolding free energy (Escherichia phage lambda, pH 8, 13 °C, Urea, CD, KD2PO4 20 mM, NaCl 100 mM, reversible: yes (>90%)): 4.6 kcal/mol
unfolding free energy (Escherichia phage lambda, pH 8, 25 °C, Urea, CD, KD2PO4 20 mM, NaCl 100 mM, reversible: yes (>90%)): 4.3 kcal/mol
unfolding free energy (Escherichia phage lambda, pH 8, 25 °C, Urea, Fluorescence, Potassium phosphate 0.1 M, reversible: yes): 2.09 kcal/mol and 1 kcal/mol
unfolding free energy (Escherichia phage lambda, pH 8, 37 °C, Urea, CD, Potassium phosphate 4 mM, NaCl 20 mM): 0.86 kcal/mol
Tm [16]: 57.2 °C
unfolding enthalpy (van 't Hoff) [16]: 68 kcal/mol
Tm [17]: 53.4 °C and 51.5 °C
unfolding enthalpy (calorimetric) [17]: 65.5 kcal/mol and 65 kcal/mol
unfolding enthalpy (van 't Hoff) [17]: 69.3 kcal/mol
Tm [18]: 53.9 °C
unfolding enthalpy (calorimetric) [18]: 53.4 kcal/mol
unfolding enthalpy (van 't Hoff) [18]: 79.8 kcal/mol

B9: Cystatin-B wild type, P04080 (protein)
chain: MMCGAPSATQPATAETQHIADQVRSQLEEKENKKFPVFKAVSFKSQVVAGTNYFIKVHVGDEDFVHLRVFQSLPHENKPLTLSNYQTNKAKHDELTYF
Tm [19]: 50.2 °C
heat capacity change of unfolding [19]: 1.6 kcal/mol/K
unfolding enthalpy (calorimetric) [19]: 70 kcal/mol

B10: Alpha-lactalbumin wild type, P00709 (protein)
chain: MRFFVPLFLVGILFPAILAKQFTKCELSQLLKDIDGYGGIALPELICTMFHTSGYDTQAIVENNESTEYGLFQISNKLWCKSSQVPQSRNICDISCDKFLDDDITDDIMCAKKILDIKGIDYWLAHKALCTEKLEQWLCEKL
denaturant m value [20]: 0.95 kcal/mol/M
denaturant midpoint (higher = more stable) [20]: 4.67 M
unfolding free energy [20]: 4.45 kcal/mol
heat capacity change of unfolding (Homo sapiens, pH 7, Thermal, CD, Sodium cacodylate 50 mM, NaCl 50 mM, reversible: yes): 1.1 kcal/mol/K
unfolding free energy (Homo sapiens, pH 7.3, 25 °C, GdnHCl, CD, Tris-HCl 0.05 M, reversible: yes): 6.8 kcal/mol
denaturant m value [21]: 0.85 kcal/mol/M
denaturant midpoint (higher = more stable) [21]: 3.09 M
unfolding free energy [21]: 2.63 kcal/mol

B11: Protein CutA wild type, O60888 (protein)
chain: MSGGRAPAVLLGGVASLLLSFVWMPALLPVASRLLLLPRVLLTMASGSPPTQPSPASDSGSGYVPGSVSAAFVTCPNEKVAKEIARAVVEKRLAACVNLIPQITSIYEWKGKIEEDSEVLMMIKTQSSLVPALTDFVRSVHPYEVAEVIALPVEQGNFPYLQWVRQVTESVSDSITVLP
Tm [22]: 96.4 °C
unfolding enthalpy (calorimetric) [22]: 284 kcal/mol
unfolding free energy [22]: 0 kcal/mol
denaturant midpoint (higher = more stable) (Homo sapiens, pH 8, 37 °C, GdnHCl, CD, Tris-HCl buffer, NaCl, transition: 2, reversible: yes): 2.38 M

B12: Ovalbumin wild type, P01012 (protein)
chain: MGSIGAASMEFCFDVFKELKVHHANENIFYCPIAIMSALAMVYLGAKDSTRTQINKVVRFDKLPGFGDSIEAQCGTSVNVHSSLRDILNQITKPNDVYSFSLASRLYAEERYPILPEYLQCVKELYRGGLEPINFQTAADQARELINSWVESQTNGIIRNVLQPSSVDSQTAMVLVNAIVFKGLWEKAFKDEDTQAMPFRVTEQESKPVQMMYQIGLFRVASMASEKMKILELPFASGTMSMLVLLPDEVSGLEQLESIINFEKLTEWTSSNVMEERKIKVYLPRMKMEEKYNLTSVLMAMGITDVFSSSANLSGISSAESLKISQAVHAAHAEINEAGREVVGSAEAGVDAASVSEEFRADHPFLFCIKHIATNAVLFFGRCVSP
Tm (Gallus gallus, pH 6, Thermal, DSC, Na-phosphate): 72.4 °C
Tm (Gallus gallus, pH 7, Thermal, DSC, Phosphate, transition: 3, reversible: No): 82.5 °C
Tm (Gallus gallus, pH 7, Thermal, DSC, Unknown, transition: 3, reversible: No): 78.4 °C

B13: Interleukin-2 wild type, Q7Z7M3 (protein)
chain: MPTSSSTKKTQLQLEHLLLDLQMILNGINNYKNPKLTRMLTFKFYMPKKATELKHLQCLEEELKPLKEVLNLAQSKNFHLRPRDLISNINVIVLELKGSETTFMCEYADETATIVEFLNRWITFSQSIISTLT
denaturant midpoint (higher = more stable) [23]: 4.4 M
unfolding free energy [23]: 9.9 kcal/mol
denaturant midpoint (higher = more stable) [24]: 3.8 M
unfolding free energy [24]: 9.3 kcal/mol
